# Experimental data as given in patent US20070015695A1 (NATIONAL JEWISH HEALTH, published 2007).
# B1: BCMA, entire, overexpressed on transfected 293 cells (receptor)
# chain: MLQMAGQCSQNEYFDSLLHACIPCQLRCSSNTPPLTCQRYCNASVTNSVKGTNAILWTCLGLSLIISLAVFVLMFLLRKISSEPLKDEFKNTGSGLLGMANIDLEKSRTGDEIILPRGLEYTVEECTCEDCIKSKPKVDSDHCFPLPAMEEGATILVTTKTNDYCKSLPAALSATEIEKSISAR
# notes: also called BCMA-transfected 293 cells; cells that overexpressed entire BCMA
# B2: extracellular domain of BCMA (residues 1 to 51 of SEQ ID NO:6), soluble monomer, cleaved from GST-BCMA (receptor)
# chain: MLQMAGQCSQNEYFDSLLHACIPCQLRCSSNTPPLTCQRYCNASVTNSVKG
# notes: Expressed as a GST fusion in pGEX4T-2 and cleaved from GST with thrombin; also called monomeric BCMA; monomeric BMCA
# Tests used:
# [1] = molecular target: B1; experiment: flow cytometry on BCMA-transfected 293 cells, anti-His6 mAb detection
# Method: (§1) First, BCMA-transfected 293 cells were incubated with control medium, wild type sTALL-1 in the control medium, and mutant sTALL-1 in the control medium. Cell staining was performed by sequential incubation (each 40 min) with anti-His₆ mAb and RPE-conjugated goat […] IgG in staining buffer. The fluorescence was measured by using a Becton Dickinson FACScan flow cytometer (Shu et al., 2000, supra) (data not shown).
# [2] = molecular target: B2; experiment: BIAcore SPR, mutant trimeric sTALL-1 immobilised on CM-5 chip, monomeric BCMA (10-1000 nM) injected, Scatchard analysis of equilibrium binding; mutant trimeric sTALL-1 (flap removed) immobilised, monomeric BCMA injected
# Method: (§2) The binding affinity of BCMA for the wild type versus mutant sTALL-1 was further determined using BIACore surface plasmon resonance. To obtain the true affinity of the receptor without the confounding effect of multivalent binding, the polyvalent TALL-1 proteins were immobilized in the instrument flow cells and the soluble monomeric BCMA was injected in the mobile phase. The KD of the interaction was calculated by Scatchard analysis of the equilibrium data (data not shown). Briefly, wild type multimeric sTALL-1 and mutant trimeric sTALL-1 were immobilized (11,000 and 3000 RU, respectively) in separate flow cells of a CM-5 BIAcore Biosenser chip using standard amine coupling reagents. Various concentrations (10-1000 nM) of monomeric BMCA were injected for one min at a flow rate of 20 μl/min in a buffer of 100 mMNaCl, 20 mM Tris-HCI pH8.0 and 0.005% P20 detergent and the binding kinetics recording. For base line calculations the same BMCA samples were injected in a control flow cell with no protein immobilized. Receptor binding kinetics were too rapid for accurate measurements of on rates and off rates, but equilibrium binding values (Rmax) were used to calculate the overall affinity of receptor binding by Scatchard analysis.
# [3] = molecular target: T1, soluble TALL-1 (sTALL-1), amino acids 134-285 of human TALL-1, His6-tagged, wild type (human, UniProt Q9Y275 134-285); experiment: flow cytometry on BCMA-transfected 293 cells, anti-His6 mAb detection
# T1 construct: Expressed in E. coli; Monomers form trimers, and at pH 7.4 and above a virus-like cluster of 60 monomers (20 trimers); Immobilised as 'wild type multimeric sTALL-1' in the BIAcore assay; also called wild type sTALL-1; native sTALL-1; not shown: N-terminal His6 tag from vector pET14b
# Method: as §1
# [4] = molecular target: T1, soluble TALL-1 (sTALL-1), amino acids …; experiment: co-expression, gel filtration at 100 mM to 1 M NaCl and SDS gel analysis, ratio 1:1
# Method: However, four lines of evidence support the present inventors' belief that the crystal structure described herein reflects the actual interactions of the complexes in solution and in vivo. First, co-expression of sTALL-1 with eBCMA or eBAFF-R generates the virus-like cluster in solution as judged by gel-filtration column and […] analysis at a ratio of 1:1 (sTALL-1: eBCMA or eBAFF-R). Different salt concentrations (from 100 mM to 1 M NaCl) produce the same elution profile, in which complexes of sTALL-1 with eBCMA or eBAFF-R elute at a void volume on superdex-200. Thus, binding between ligand and receptors is stable and insensitive to salt concentrations. Purified samples of the preformed complexes were subjected to crystallization trials. Crystals of both complexes have been obtained, however neither of them diffracted. The results further confirmed that the “flap” region of TALL-1 which is involved in clustering, is not part of the receptor binding site. […] Second, in the receptor soaked sTALL-1 crystals, all seven fully occupied receptors and one partial receptor have equivalent binding sites on sTALL-1 in the asymmetry unit, so the binding is highly specific. Third, eBCMA and eBAFF-R have a similar binding mode and occupy the same site on sTALL-1. […]
# [5] = molecular target: T1, soluble TALL-1 (sTALL-1), amino acids …; experiment: BIAcore SPR, sTALL-1 immobilised on CM-5 chip, monomeric BCMA (10-1000 nM) injected, Scatchard analysis of equilibrium binding
# Method: as §2
binder,measurement,setting,value
"mutant sTALL-1 with residues 217-224 of SEQ ID NO:2 (flap region) replaced by two glycines (ligand, Gel filtration gave trimer and monomer peaks and no cluster; Immobilised as 'mutant trimeric sTALL-1' in the BIAcore assay; also called truncated sTALL-1; sTALL-1 217-224; not shown: N-terminal His6 tag; the mutant was overexpressed and purified as the native sTALL-1 and detected with anti-His6 mAb; le) AVQGPEETVTQDCLQLIADSETPTIQKGSYTFVPWLLSFKRGSALEEKENKILVKETGYFFIYGQVLYTDKTYAMGHLIQRKKGGSLVTLFRCIQNMPETLPNNSCYSAGIAKLEEGDELQLAIPRENAQISLDGDVTFFGALKLL",binding result,[1],binds
same,Kd,[2],~0.1 µM
B1,binding result,[3],binds
"eBCMA, extracellular domain of BCMA (residues 1-52 of SEQ ID NO:6) (receptor, Residues 5-43 are ordered in the model; Made as a GST fusion and cleaved with thrombin) MLQMAGQCSQNEYFDSLLHACIPCQLRCSSNTPPLTCQRYCNASVTNSVKGT",binding result,[4],binds
B2,Kd,[5],~0.1 µM
